Data: patent US20110262929A1 (FORERUNNER PHARMA RESEARCH, published 2011)
Residue numbers refer to the chain shown, from its start.

Key:
[1] = target: T1, C-terminal V5 tagged HS6ST2_N-long (HS6ST2_N-long_ctV5), expressed in CHO DG44 cells (human, UniProt Q96MM7 1-605); assay: flow cytometry on HS6ST2_N-long_ctV5_CHO cells
T1 construct: On cells in flow cytometry; also called Q96MM7-1
T1 sequence: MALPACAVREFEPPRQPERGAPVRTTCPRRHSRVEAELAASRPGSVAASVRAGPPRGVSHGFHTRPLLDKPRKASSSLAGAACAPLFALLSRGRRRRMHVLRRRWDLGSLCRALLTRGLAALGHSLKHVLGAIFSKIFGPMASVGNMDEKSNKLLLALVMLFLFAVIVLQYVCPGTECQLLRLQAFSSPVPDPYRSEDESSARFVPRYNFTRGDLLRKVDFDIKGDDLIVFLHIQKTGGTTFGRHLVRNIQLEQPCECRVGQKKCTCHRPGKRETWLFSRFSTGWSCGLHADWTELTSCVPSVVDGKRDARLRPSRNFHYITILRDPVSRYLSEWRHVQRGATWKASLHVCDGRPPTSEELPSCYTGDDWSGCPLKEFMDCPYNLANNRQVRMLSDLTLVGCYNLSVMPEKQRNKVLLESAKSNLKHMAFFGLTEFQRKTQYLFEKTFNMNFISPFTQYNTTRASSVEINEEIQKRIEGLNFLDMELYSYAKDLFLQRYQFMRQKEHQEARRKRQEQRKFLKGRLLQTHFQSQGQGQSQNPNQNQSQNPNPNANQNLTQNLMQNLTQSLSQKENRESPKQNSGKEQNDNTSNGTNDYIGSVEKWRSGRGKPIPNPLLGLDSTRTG
Description: (§1) Each anti-HS6ST2 antibody or mouse IgG1 (mIgG1, BD Biosciences Pharmingen) as a negative control was added to a final concentration of 2 μg/mL into 96-well U-bottom plates (Becton Dickinson) containing 5×10⁴ cells suspended in PBS (FACS buffer) supplemented with 0.5% bovine serum albumin and 0.1% NaN₃. After reaction on ice for 1 hour, the cells were washed with FACS buffer. Then, an FITC-labeled anti-mouse antibody (Goat F(ab′)₂ Fragment Anti-mouse IgG (H+L)-FITC, Beckman Coulter) was added as a secondary antibody, and the mixture was reacted on ice for 1 hour. The cells were washed with FACS buffer, and then suspended in FACS buffer containing 10 μg/mL propidium iodide (PI) (Sigma) and assayed by a flow cytometer (FACS Calibur, Becton Dickinson). The assay data were analyzed by CELLQuest software (Becton Dickinson), and the geo-mean of FITC fluorescent intensity was calculated for the PI-negative population of viable cells.
Binding activity of the anti-HS6ST2 antibodies prepared in Example 2 to HS6ST2_N-long was evaluated by flow cytometry. The cells used were HS6ST2_N-long_ctV5_CHO cells and HS6ST2_N-short_{—} ctV5_CHO cells as a positive control, and evaluated in the same manner as in Example 3. The primary antibodies were used at a concentration of 10 μg/mL.

[2] = target: T2, C-terminal V5 tagged HS6ST2_N-short (HS6ST2_N-short_ctV5), expressed in CHO DG44 cells (human, UniProt Q96MM7 147-605); assay: flow cytometry on HS6ST2_N-short_ctV5_CHO cells, antibody 2 µg/mL
T2 construct: also called Q96MM7-2
T2 sequence: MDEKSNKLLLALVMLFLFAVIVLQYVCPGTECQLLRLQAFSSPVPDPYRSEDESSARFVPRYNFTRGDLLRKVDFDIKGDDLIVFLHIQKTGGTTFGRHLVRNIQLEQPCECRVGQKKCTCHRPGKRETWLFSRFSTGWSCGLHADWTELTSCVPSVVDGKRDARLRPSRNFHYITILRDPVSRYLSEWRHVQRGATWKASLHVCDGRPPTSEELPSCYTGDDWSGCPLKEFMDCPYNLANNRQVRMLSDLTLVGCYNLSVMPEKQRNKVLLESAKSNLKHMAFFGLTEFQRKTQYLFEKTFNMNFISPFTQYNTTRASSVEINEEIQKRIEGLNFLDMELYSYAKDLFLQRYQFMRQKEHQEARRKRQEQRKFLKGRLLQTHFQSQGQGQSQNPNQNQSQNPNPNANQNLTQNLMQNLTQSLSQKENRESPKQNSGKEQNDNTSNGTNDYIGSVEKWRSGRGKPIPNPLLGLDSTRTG
Description: (§2) Binding of the anti-HS6ST2 antibodies prepared in Example 2 to mHS6ST2 was evaluated by flow cytometry. The cells used were mHS6ST2_ctV5_CHO, HS6ST2_N-short_ctV5_CHO as a positive control, and the CHO DG44 cell line as a negative control.
as §1

[3] = target: T3, C-terminal V5 tagged mouse HS6ST2 (mHS6ST2_ctV5), expressed in CHO DG44 cells (mouse, UniProt Q80UW0 148-612); assay: flow cytometry, antibody diluted 5-fold from 10 µg/mL in 6 steps
T3 construct: also called mHS6ST2_ctV5_CHO; mouse HS6ST2 transcript variant 2
T3 sequence: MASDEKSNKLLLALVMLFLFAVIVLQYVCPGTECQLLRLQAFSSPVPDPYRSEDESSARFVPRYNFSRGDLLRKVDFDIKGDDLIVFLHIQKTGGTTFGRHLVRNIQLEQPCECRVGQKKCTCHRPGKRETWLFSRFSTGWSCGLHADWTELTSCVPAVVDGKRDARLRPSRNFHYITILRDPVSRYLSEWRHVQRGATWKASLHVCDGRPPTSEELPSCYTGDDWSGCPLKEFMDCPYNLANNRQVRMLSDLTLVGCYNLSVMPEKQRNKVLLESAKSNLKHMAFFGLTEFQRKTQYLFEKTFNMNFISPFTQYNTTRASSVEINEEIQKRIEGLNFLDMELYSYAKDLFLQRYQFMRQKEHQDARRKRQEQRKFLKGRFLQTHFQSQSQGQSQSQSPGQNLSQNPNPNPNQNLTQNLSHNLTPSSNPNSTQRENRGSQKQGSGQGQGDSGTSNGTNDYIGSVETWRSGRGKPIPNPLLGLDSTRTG
Description: as §2
as §1, with “Each anti-HS6ST2 antibody or mouse IgG1 (mIgG1, BD Biosciences Pharmingen) as a negative control was added to a final concentration of 2 μg/mL into 96-well U-bottom plates (Becton Dickinson) containing 5×10⁴ cells suspended in PBS (FACS buffer) supplemented with 0.5% bovine serum albumin and 0.1% NaN₃.” left out
It was also shown that A6 and C8 equally bind to HS6ST2 and mHS6ST2.

Measured: binding result

B1: anti-HS6ST2 antibody A6 (antibody, mouse IgG1, V domains shown)
VH: EVQLQQSGAELVRSGASVKLSCTASGFNIKDYYMHWVKQRPEQGLEWIGWIDPENDDTEYAPKFQGRATMTADTSSNTAYLQLSSLTSEDTAVYYCNAGYYGSGFAYWGQGTLVTVSA
VL: DIVMTQSPSSLTVTAGEKVTMRCKSSQSLLNSGNQKNYLTWYQQKPGQPPRLLIYWASIRESGVPDRFTGSGSGTDFTLTISSVQAEDLAVYYCQNDYSYPLTFGTGTKLELK
notes: also called clone A6
binds: all assays above

B2: anti-HS6ST2 antibody C8 (antibody, mouse IgG1, V domains shown)
VH: B1 VH with E54D, R67K, Y100N, Y101G, G102N, S103Y, G104W
VL: DVVMTQTPLSLPVSLGDQASISCRSSQSLVHSNGNTYLHWNLQKPGQSPKLLIYKVSNRFSGVPDRFSGSGSGTDFTLKISRVEAEDLGVYFCSQTTLVPYTFGGGTKLEIK
notes: also called clone C8; C8-biotin
binds: all assays above
